Test results taken from patent US11413329B2, “Cancer cell trap” (BOARD OF REGENTS, THE UNIVERSITY OF TEXAS SYSTEM, priority 2012, dated 2022).
“Also recorded” adds a separate entry of the source.

Key:
[1] = Release rates of chemokines/growth factors from cancer cell traps; conditions: for Release rates: optimal release rate from cancer cell traps; for Duration: release from cancer cell traps
From the text: The Experiments have been carried out to determine the release rates of various cancer stem cell chemokines/growth factors from cancer cell traps. The optimal release rates for each biomolecules are listed below.
Cancer cell trap size and dimension for human patients. All studies carried out thus far used mice cancer models. Since the cancer cells are recruited based on the chemokines gradient, localized concentrations, but not the systemic concentrations, are the determining factors. In other words, the effectiveness of the cancer cell traps are determined on the localized release rates as listed in the above table.

[2] = tested on: PC3 prostate cancer cells; assay: PC3 prostate cancer cell recruitment to PEG hydrogel cancer cell traps; assay type: in vivo, mouse; conditions: C57 mice, released from subcutaneous PEG hydrogel, 24 hours after intravenous transplantation, fluorescence intensity, vs saline
From the text: Using near-infrared labeled PC3 prostate cell transplanted mice, the effect of hydrogel cancer cell traps in reducing cancer metastasis was studied. Specifically, PEG hydrogel was fabricated as following. Carboxyl-terminal PEG derivative polymer was synthesized using free radical polymerization. In brief, 4,4′-azobis(4-cyanovaleric acid) and various weight ratios (10:1-20:1) of 2-(2-Methoxyethoxy)ethyl methacrylate (MEO2MA) and oligo(ethylene glycol)monomethyl ether methacrylates (Mw:475;OEOMA475) were dissolved in ethanol to form a 20 wt % monomer solution. The solution was purged with nitrogen gas for 10 min and incubated at 60° C. for 6 h. The solvent was then removed with evaporation under vacuum and the crude polymers are re-dissolved in DI water and were purified with exhaust dialysis against DI water and then lyophilized. The low critical solution temperature (LCST) of the carboxyl-terminal PEG derivative polymers was determined using an UV-vis spectrometer. By changing the molar ratios of MEO2MA to OEOMA475, the carboxyl-terminal PEG derivative polymer with LCST of 32° C. was achieved and the polymer used to fabricate thermogelling bioactive hydrogel scaffold as described below. Incorporation of chemokines/cytokines to PEG hydrogel was achieved by physical adsorption. PEG hydrogel was mixed with vascular endothelial growth factor (VEGF) (100 ng/ml), erythropoietin (EPO) (100 international unit/ml), stromal derived factor-1α (SDF-1α) or saline (as control). The hydrogel samples were then injected into the subcutaneous cavity (under the skin) of C57 mice via 20 gauge needles. The mice were then transplanted intravenously with PC3 prostate cancer cells (5×10^6/mouse).

[3] = Release kinetics of cytokines/growth factors from MB scaffolds; conditions: gelatin MB scaffolds; for sustained release, share of total amounts per day: after the bolus; for bolus release: within the first 24 hours
From the text: Chemokine/growth factor loaded PLGA scaffolds were fabricated using our protein microbubble fabrication method. Briefly, 2-20% w/v protein solution with various chemokines was overlaid with nitrogen gas and sonicated using a probe sonicator (Ultrasonix, Bothell, Wash.) at 20 kHz for 10 seconds. Protein solution can be composed of single proteins or protein mixtures in different ratios. The potential protein candidates including albumin, collagen, gelatin, immunoglobulins, extracellular matrix proteins, fibronectin, etc. Protein microbubble solutions can be added to PLGA (3-15% w/v in 1,4 dioxane) in a 1:1 ratio and gently agitated. They were then quenched in liquid nitrogen and lyophilized for 72 hours at 0.01-0.1 mBar vacuum in a Freezone 12 lyophilizer (Labconco, Kansas City, Mo., USA).
The microbubble (MB) scaffolds were analyzed using Scanning Electron Microscopy. […] Protein distribution and internal architecture of the scaffolds was determined by staining histological sections with Coomassie Blue as described earlier. […] In contrast, Coomassie Blue staining of the gelatin MB scaffold sections indicated the presence of protein around the pores and throughout the matrix of the gelatin MB scaffolds (FIG. 12C). The compressive strength of the scaffolds was tested using an MTS Insight 2 machine fitted with a 500 N load cell. Samples (5 mm width and 5 mm thickness) were compressed to 10% strain at a deflection rate of 2 mm/min. The Young's modulus was calculated from the slope of the curve similar to our earlier publication. […] Finally, the release kinetics of cytokines/growth factors from MB scaffolds was determined using Oyster 800-conjugated EPO and Oyster 800-conjugated SDF.

B16F10 melanoma cells = assay: Murine cancer metastasis model: melanoma cell migration to subcutaneous microsphere implants and lymph nodes; assay type: in vivo, C57BL/6 mice; conditions: B16F10 cells intraperitoneal
Procedure: The animal experiments were carried out using C57BL/6 mice (6-10 week old) from Jackson Laboratory (Bar Harbor, Me., USA). This murine cancer metastasis model comprised of two consecutive steps. First, biomaterial microspheres (75 mg/0.5 ml saline/mouse) were implanted in the dorsal subcutaneous space of mice to elicit localized subcutaneous inflammation. Second, after microsphere implantation for different periods of time (6 hours-14 days), cancer cells (5×10^6 cells/0.2 ml/mouse) were transplanted in the peritoneal cavity. 24 h after tumor cell trans-plantation the animals were sacrificed. The vital organs, lymph nodes, the microsphere implants and surrounding tissues were then recovered and frozen in OCT embedding media (Polysciences Inc., Warrington, Pa., USA) at −80° C. The peripheral blood was also collected for further analysis. […]
Immunohistological analyses for CD11b+ inflammatory cells and HMB45+ melanoma cells were carried out to assess the degree of implant-mediated inflammatory responses and melanoma cell migration, respectively. […] FITC-conjugated antibody incubated tissue section was ready for image analysis. […] All tissue section images were taken using a Leica fluorescence microscope (Leica Microsystems GmbH, Wetzlar, Germany) equipped with a Retiga-EXi CCD camera (QImaging, Surrey, BC, Canada) as described earlier. […]

[4] = tested on: CD11b+ inflammatory cells; assay: Murine cancer metastasis model: inflammatory cell recruitment to subcutaneous microsphere implants; assay type: in vivo, C57BL/6 mice; conditions: vs control
Procedure: The animal experiments were carried out using C57BL/6 mice (6-10 week old) from Jackson Laboratory (Bar Harbor, Me., USA). This murine cancer metastasis model comprised of two consecutive steps. First, biomaterial microspheres (75 mg/0.5 ml saline/mouse) were implanted in the dorsal subcutaneous space of mice to elicit localized subcutaneous inflammation. Second, after microsphere implantation for different periods of time (6 hours-14 days), cancer cells (5×10^6 cells/0.2 ml/mouse) were transplanted in the peritoneal cavity. 24 h after tumor cell trans-plantation the animals were sacrificed. The vital organs, lymph nodes, the microsphere implants and surrounding tissues were then recovered and frozen in OCT embedding media (Polysciences Inc., Warrington, Pa., USA) at -80° C. The peripheral blood was also collected for further analysis. Eight μm thick sections were sliced using a Leica Cryostat (CM1850) and placed on poly-L-lysine coated slides for histological and immunohistochemical analyses. […] FITC-conjugated antibody incubated tissue section was ready for image analysis. […] All tissue section images were taken using a Leica fluorescence microscope (Leica Microsystems GmbH, Wetzlar, Germany) equipped with a Retiga-EXi CCD camera (QImaging, Surrey, BC, Canada) as described earlier. […]

Compound	Release rates [1]	Duration [1] [days]	recruitment of PC3 prostate cancer cells to the implant sites [2]	further results
EPO: erythropoietin, released from cancer cell traps	1.5-2.5 international international units/1 milliliter of hydrogel/particle cancer traps or 1 cubic centimeters scaffold traps/days	>30	increased the recruitment	–
Hepatocyte growth factor (HGF/SF): hepatocyte growth factor/scatter factor released from cancer cell traps	15 ng/1 milliliter of ng/1 milliliter of hydrogel/particle cancer traps or 1 cubic centimeters scaffold traps/day	>28	–	–
Oyster 800-conjugated SDF: NIR dye conjugated SDF released from gelatin MB scaffolds	–	–	–	sustained release, share of total amounts per day [3]: approximately 2%; bolus release [3]: 20%
SDF-1α	100 ng/1 milliliter of ng/1 milliliter of hydrogel/particle cancer traps or 1 cubic centimeters scaffold traps/day	>24	increased the recruitment	–
VEGF	–	–	increased the recruitment	–
RANTES/CCL5: chemokine released from cancer cell traps	10 ng/1 milliliter of ng/1 milliliter of hydrogel/particle cancer traps or 1 cubic centimeters scaffold traps/day	>21	–	–
c1cc(CN2CCCNCCNCCCNCC2)ccc1CN1CCCNCCNCCCNCC1 [AMD3100]	–	–	–	accumulation of melanoma cells in lymph nodes (B16F10 melanoma cells; PLA microsphere-bearing mice, vs saline): no effect; recruitment of melanoma cells (HMB45+) to the subcutaneous microsphere implantation site (B16F10 melanoma cells; subcutaneous microsphere implants, 24 h after transplantation, vs control): drastically reduced; also recorded: inhibited; inflammatory cell (CD11b+) recruitment to the subcutaneous microsphere implantation site [4]: drastically reduced
Oyster 800-conjugated EPO: NIR dye conjugated EPO released from gelatin MB scaffolds	–	–	–	sustained release, share of total amounts per day [3]: approximately 2%; bolus release [3]: 20%
